Results reported in patent US20240207421A1, “NERVE TARGETING PEPTIDES AND METHODS OF USE” (ALUME BIOSCIENCES, INC., priority 2020, published 2024).

Test system: excised human nerve tissue (or nerve extracts)
Assay: Phage display library screening (Example 2), NEB tissue-binding peptides: nerve tissue and nerve extracts versus muscle
Settings: unique sequence count, tissue target: excised nerve, peptides not binding muscle extracts
Experimental: Phage display library screens were used to identify peptides that bind to target proteins (including specific laminin trimers) that are expressed in human nerves, as described in Table 3. These screens were also carried out to identify peptides that could bind selectively to nerves versus muscle. Such peptides could therefore be useful for systemic in-vivo labeling of nerves during fluorescence assisted surgery. Specifically, m 13 phage libraries expressing 7 or 12 random amino acid peptides, or a cyclic peptide CX7C, on the N-terminus of the minor coat protein pIII (New England Biolabs; NEB) were processed through multiple rounds of selection for binding to target proteins expressed in nerves, or to excised human nerves, nerve extracts, or muscle, as described further below.
To identify peptides selective for nerves versus muscle, phage from the same libraries used for specific target proteins were used to screen against excised human nerve tissue (or nerve extracts) and human muscle tissue.
Excised Nerve Tissue: Phage were processed through multiple cycles of selection, with representative phage being isolated and sequenced after each selection cycle. Specifically, for selection using human nerve tissue, a sample of […] tissue (2 mm by 2 mm) was washed prior to mixing and incubation with a phage library. After incubation, the mixture (containing mostly intact nerves with phage particles that had variable affinity for nerves) was centrifuged and the nerve pellet washed multiple times with PBS to remove phage with little or no affinity for nerve tissue. The pellet was homogenized and plated for titering and reamplification. Phage that were bound at each round were sequenced. NextGen sequencing of pools after 2, 3 and 4 rounds of selection were used to isolate candidate sequences that were further analyzed using bioinformatics.
Nerve Extracts: Phage libraries were incubated for up to 24 hours at 4° C. in 96 well plates that had been coated with a human nerve extract. Plates were then washed with PBS and phage were eluted using 0.2M glycine pH 2.0. Phage supernatants where then neutralized with Tris pH 9.0 prior to plating on TG1 bacteria and LB agar plates. Colonies were counted to determine titer followed by DNA preparation of pools of phage and NextGen sequencing. After rounds of selection, phage were pooled and amplified for iterative selection. Phage that eluted by 0.2M glycine pH 2.0 (the nerve binders) at each round were sequenced. NextGen sequencing of pools after 2, 3 and 4 rounds of selection were used to isolate candidate sequences that were further analyzed using bioinformatics.
Muscle Tissue: Phage were processed through multiple cycles of selection, with representative phage being isolated and sequenced after each selection cycle. Specifically, for selection using human skeletal muscle tissue, a sample of skeletal muscle tissue (2 mm by 2 mm) was washed prior to mixing and incubation with a phage library. After incubation, the mixture (containing mostly intact muscle with phage particles that had variable affinity for muscle) was centrifuged and the muscle pellet washed multiple times with PBS to remove phage with little or no affinity for muscle tissue. The pellet was then homogenized and plated for titering and reamplification. Phage that were bound at each round were sequenced. NextGen sequencing of pools after 2, 3 and 4 rounds of selection were used to isolate candidate sequences that were further analyzed using bioinformatics.
For all NEB sequence datasets, a python script was used to translate, trim, and filter the peptide sequences (see details above). A python script was used to group peptides from different assays according to tissue target (muscle, nerve, neuron, or nerve extract) and combine the unique sequence counts for each peptide. […]

Molecule | Count Excised Nerve
QNIVENFIDNER | 20
VRLPMLASMGHQ | 19

Same assay, conditions: unique sequence count, tissue target: nerve extract, peptides not binding muscle extracts

Molecule | Count Nerve Extract
QNIVENFIDNER | 27
VRLPMLASMGHQ | 40

Same assay, conditions: unique sequence count, tissue target: neuron, peptides not binding muscle extracts

Molecule | Count Neuron
QNIVENFIDNER | 7
VRLPMLASMGHQ | 21

Target: Laminin 421/521
Assay: phage display, NGS count
Settings: not given

Molecule | Count
SVQTPMWRSLVG | 28
CVLKCEDQKYRG | 27
CIGGPHRNC | 29
GSPEKRT | 30
TTLWLDRDEALK | 27
RALDRYLPWSPH | 28
GLLDWGSLQGGN | 30
ETGGLAYGSGQK | 28
TVARSTAQERSI | 28
STNVQRA | 28
HTQIHRL | 28
CTSSSHQTC | 28
SLPYAASLNSVE | 28
NGHEVQSRAANR | 29
CSRAGLSAC | 30
CTDGRNFVC | 28
KASIAYD | 30
CNSWKAAKC | 29
CTWKHRDNC | 30
LGSSRSPSSFLG | 29
CKSPIKGTC | 27
QPTPSQIKFTRT | 28
SWHFTGTPFMNR | 28
TSAVSLR | 27
DSLYRGMHQPRI | 29
SPDRTNWGWQTN | 29
TALSHRHEAMRW | 28
GINLRALDLHAN | 27
HPAWADFFTMSS | 29
SVESNSKLTMPR | 29

Further lines, results first:

Count | Molecule
27 | HQSVTGVRSHFH
28 | CPMHQSKTC
28 | SVLSTGTANQRH
28 | SYTATWSEMSRS
29 | EVERILTPHVNN
27 | EAVSTQI
28 | GWTSDLSRNVRG
28 | TKGIAPK
28 | CTGETLLTC
27 | TILKPAAQGFAD
29 | FNSDSRSTHQED
27 | SVVGWAAPRTAQ
29 | CKSPAIKGC
30 | GPLLFRG
29 | IDQSGLQKSGMK
27 | VIADQSKSAVAV
30 | CKSERGPEC
30 | CQGWPRPMC
28 | AQNLRVHAWASL
29 | EDRMMTYRYTST
29 | QGWKDRLPIWRY
29 | WPMMQTR
29 | IDLSLRS
27 | DRMYSTVPAEGL
29 | AVRPLGLPDNHR
28 | QLQHVHL
28 | KFADTKLTSLRY
29 | SHDVANGTSVRT
28 | GIVPSRHTTGLG
27 | CLQKNHKFC
